Reference: patent publication US20020127222A1 (VEGENICS, published 2002)
Blank lines part the entries; values can stand above or below the molecule they belong to.

Experiments:
[1] = target: chimeric receptor containing the extracellular domain of VEGFR-2, on Ba/F3 cells; assay: cell-based or functional assay
[2] = target: T1, VEGFR-3-Ig (extracellular domain of human VEGFR-3 fused to the Fc portion of human IgG1) (human, UniProt P35916 25-775); assay: precipitation of 35S-labeled ligand from conditioned medium by receptor-Ig on protein A Sepharose, SDS-PAGE
T1 construct: extracellular domain; Expressed in 293T cells, captured on protein A Sepharose; not shown: Fc portion of human IgG1
T1 sequence (looked up): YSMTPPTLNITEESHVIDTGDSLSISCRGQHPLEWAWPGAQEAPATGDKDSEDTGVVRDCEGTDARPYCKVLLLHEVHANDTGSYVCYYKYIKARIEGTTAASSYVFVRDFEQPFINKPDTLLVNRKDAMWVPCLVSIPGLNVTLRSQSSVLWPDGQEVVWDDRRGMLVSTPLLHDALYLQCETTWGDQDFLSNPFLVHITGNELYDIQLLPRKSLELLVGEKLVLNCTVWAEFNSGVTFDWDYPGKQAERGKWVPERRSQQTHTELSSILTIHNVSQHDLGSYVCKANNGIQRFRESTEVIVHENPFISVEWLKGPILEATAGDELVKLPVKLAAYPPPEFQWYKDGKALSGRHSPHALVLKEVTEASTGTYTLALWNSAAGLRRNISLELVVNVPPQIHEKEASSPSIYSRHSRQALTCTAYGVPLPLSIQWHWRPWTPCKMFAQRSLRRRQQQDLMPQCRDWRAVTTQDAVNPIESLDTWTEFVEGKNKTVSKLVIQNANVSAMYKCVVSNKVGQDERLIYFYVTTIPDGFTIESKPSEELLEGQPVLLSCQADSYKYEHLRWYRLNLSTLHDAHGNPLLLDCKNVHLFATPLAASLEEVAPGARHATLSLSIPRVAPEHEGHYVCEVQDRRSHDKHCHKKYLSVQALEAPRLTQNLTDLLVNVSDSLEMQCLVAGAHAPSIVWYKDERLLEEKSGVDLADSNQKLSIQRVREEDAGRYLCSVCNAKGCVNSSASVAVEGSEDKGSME
Experimental: (§1) To further assess the interactions between VEGF-D and the VEGF receptors, VEGF-DΔNΔC was tested for its capacity to bind to soluble immunoglobulin fusion proteins comprising the extracellular domains of human VEGFR-1, human VEGFR-2 and human VEGFR-3. The corresponding fragment of VEGF-C, VEGF-CΔNΔC, was used for comparison. For binding experiments, 293T human embryonal kidney cells were transfected with plasmids encoding the soluble receptor-immunoglobulin fusion proteins VEGFR-1-Ig, VEGFR-2-Ig or VEGFR-3-Ig using the calcium-phosphate (Ca-phosphate) method. In these fusion proteins, the extracellular domain of the relevant VEGF receptor is fused to the Fc portion of human IgG₁. The cells were incubated for 24 hours after transfection, washed with Dulbecco's Modified Eagle's Medium (DMEM) containing 0.2% bovine serum albumin (BSA) and starved for 24 hours. Media were then collected and clarified by centrifugation, and fusion proteins were precipitated using protein A Sepharose beads. […] Metabolic labeling of 293-EBNA cells was carried out essentially as described (Joukov et al., 1997). The Sepharose beads were then washed twice with binding buffer (0.5% BSA, 0.02% Tween 20, 1 μg/ml heparin in phosphate buffered saline (PBS)) at 4° C. and once with PBS, boiled in Laemmli sample buffer, and proteins were then analyzed by SDS-PAGE.
(§2) In FIG. 3, precipitation of labeled VEGF₁₆₅, VEGF-CΔNΔC and VEGF-DΔNΔC by VEGFR-1-Ig, VEGFR-2-Ig and VEGFR-3-Ig was carried out as described above. The fusion proteins used for the precipitations are shown to the right. “Vector” denotes results of precipitations from medium derived from cells transfected with expression vector lacking sequence encoding the VEGFs. The molecular weight markers are indicated in kDa

[3] = target: T2, VEGFR-1-Ig (extracellular domain of human VEGFR-1 fused to the Fc portion of human IgG1) (human, UniProt P17948 27-758); assay: as above
T2 construct: extracellular domain; Expressed in 293T cells, captured on protein A Sepharose; not shown: Fc portion of human IgG1
Experimental: as §1, §2

[4] = target: T3, VEGFR-2-Ig (extracellular domain of human VEGFR-2 fused to the Fc portion of human IgG1) (human, UniProt P35968 20-764); assay: as above
T3 construct: extracellular domain; Expressed in 293T cells, captured on protein A Sepharose; not shown: Fc portion of human IgG1
Experimental: as §1, §2

[5] = target: the molecule itself; assay: size exclusion chromatography and SDS-PAGE (self-association)

T2 sequence (P17948 27-758): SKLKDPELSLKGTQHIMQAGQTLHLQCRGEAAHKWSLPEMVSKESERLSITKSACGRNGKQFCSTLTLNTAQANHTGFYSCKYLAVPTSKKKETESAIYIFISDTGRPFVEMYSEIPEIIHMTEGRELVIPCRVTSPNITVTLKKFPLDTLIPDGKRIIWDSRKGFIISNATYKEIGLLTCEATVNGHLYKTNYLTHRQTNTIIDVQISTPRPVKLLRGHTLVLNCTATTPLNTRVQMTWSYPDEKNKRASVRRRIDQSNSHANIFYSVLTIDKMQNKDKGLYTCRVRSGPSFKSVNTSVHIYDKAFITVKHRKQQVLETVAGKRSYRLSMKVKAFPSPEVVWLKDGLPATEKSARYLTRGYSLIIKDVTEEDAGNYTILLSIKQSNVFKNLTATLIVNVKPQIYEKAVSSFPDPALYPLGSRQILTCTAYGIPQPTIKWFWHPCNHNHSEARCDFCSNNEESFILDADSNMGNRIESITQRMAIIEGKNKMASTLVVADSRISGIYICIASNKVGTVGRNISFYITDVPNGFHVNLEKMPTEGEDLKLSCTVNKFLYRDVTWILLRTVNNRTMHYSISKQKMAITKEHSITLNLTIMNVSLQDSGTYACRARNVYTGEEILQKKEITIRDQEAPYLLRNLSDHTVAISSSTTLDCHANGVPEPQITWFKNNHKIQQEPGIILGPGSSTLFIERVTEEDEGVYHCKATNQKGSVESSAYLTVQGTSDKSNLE
T3 sequence (P35968 20-764): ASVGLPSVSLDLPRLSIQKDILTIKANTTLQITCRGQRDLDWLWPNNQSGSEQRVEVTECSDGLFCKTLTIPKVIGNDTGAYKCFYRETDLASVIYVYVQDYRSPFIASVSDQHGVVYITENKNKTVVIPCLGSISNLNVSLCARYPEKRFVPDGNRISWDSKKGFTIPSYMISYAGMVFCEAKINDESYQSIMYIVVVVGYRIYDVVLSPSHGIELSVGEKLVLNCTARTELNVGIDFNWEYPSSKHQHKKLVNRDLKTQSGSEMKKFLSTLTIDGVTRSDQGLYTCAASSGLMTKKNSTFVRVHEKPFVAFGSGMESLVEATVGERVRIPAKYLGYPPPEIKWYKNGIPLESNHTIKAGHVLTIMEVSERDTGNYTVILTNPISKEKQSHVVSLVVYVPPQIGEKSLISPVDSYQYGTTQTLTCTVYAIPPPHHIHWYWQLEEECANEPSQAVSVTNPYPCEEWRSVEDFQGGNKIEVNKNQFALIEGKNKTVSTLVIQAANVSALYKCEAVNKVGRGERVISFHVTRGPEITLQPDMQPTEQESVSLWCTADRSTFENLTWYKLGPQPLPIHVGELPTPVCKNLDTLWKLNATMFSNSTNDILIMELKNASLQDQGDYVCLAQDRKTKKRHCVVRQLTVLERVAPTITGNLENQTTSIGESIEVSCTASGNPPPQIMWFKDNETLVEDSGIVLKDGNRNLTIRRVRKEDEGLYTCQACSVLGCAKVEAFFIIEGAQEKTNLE

- VEGFR-2 binding activity (Ba/F3 cell bioassay) of size exclusion peak 1 (% of that in peak 2) [1]: 1
Molecule: VEGF-DΔNΔC non-covalent homodimer (size exclusion peak 2, 49 kDa) (from UniProt O43915 93-201) (ligand)

- binding result [2]: binds
- binding result [3]: no binding
- binding result [4]: binds
B1: VEGF-DΔNΔC (human VEGF-D amino acid residues 93 to 201 tagged with the FLAG octapeptide adjacent to the N-terminus) (ligand, not shown: small tags and cut ends)
chain: FYDIETLKVIDEEWQRTQCSPRETCVEVASELGKSTNTFFKPPCVNVFRCGGCCNEESLICMNTSTSYISKQLFEISVPLTSVPELVPVKVANHTGCKCLPTAPRHPYS
notes: purified from COS cells for the enzyme immunoassay; human VEGF-D?N?C

B2: VEGF-DΔNΔC monomer (size exclusion peak 3, 25 kDa) (ligand)
chain: B1 chain
notes: also called VEGF-D?N?C monomer; monomeric form of VEGF-D?N?C; not shown: FLAG octapeptide tag at the N-terminus
- binding result [5]: binds

- binding result [2]: no binding
- binding result [3]: binds
B3: human VEGF165 (ligand, UniProt P15692-4 27-191, looked up)
chain: APMAEGGGQNHHEVVKFMDVYQRSYCHPIETLVDIFQEYPDEIEYIFKPSCVPLMRCGGCCNDEGLECVPTEESNITMQIMRIKPHQGQHIGEMSFLQHNKCECRPKKDRARQENPCGPCSERRKHLFVQDPQTCKCSCKNTDSRCKARQLELNERTCRCDKPRR
notes: 35S-labeled conditioned medium
